# In IntAct's records for PubMed 25910212:
# B1: LHFPL tetraspan subfamily member 5 protein (Homo sapiens), Q8TAF8 (parent)
# chain: MVKLLPAQEAAKIYHTNYVRNSRAVGVMWGTLTICFSVLVMALFIQPYWIGDSVNTPQAGYFGLFSYCVGNVLSSELICKGGPLDFSSIPSRAFKTAMFFVALGMFLIIGSIICFSLFFICNTATVYKICAWMQLAAATGLMIGCLVYPDGWDSSEVRRMCGEQTGKYTLGHCTIRWAFMLAILSIGDALILSFLAFVLGYRQDKLLPDDYKADGTEEV
# partner: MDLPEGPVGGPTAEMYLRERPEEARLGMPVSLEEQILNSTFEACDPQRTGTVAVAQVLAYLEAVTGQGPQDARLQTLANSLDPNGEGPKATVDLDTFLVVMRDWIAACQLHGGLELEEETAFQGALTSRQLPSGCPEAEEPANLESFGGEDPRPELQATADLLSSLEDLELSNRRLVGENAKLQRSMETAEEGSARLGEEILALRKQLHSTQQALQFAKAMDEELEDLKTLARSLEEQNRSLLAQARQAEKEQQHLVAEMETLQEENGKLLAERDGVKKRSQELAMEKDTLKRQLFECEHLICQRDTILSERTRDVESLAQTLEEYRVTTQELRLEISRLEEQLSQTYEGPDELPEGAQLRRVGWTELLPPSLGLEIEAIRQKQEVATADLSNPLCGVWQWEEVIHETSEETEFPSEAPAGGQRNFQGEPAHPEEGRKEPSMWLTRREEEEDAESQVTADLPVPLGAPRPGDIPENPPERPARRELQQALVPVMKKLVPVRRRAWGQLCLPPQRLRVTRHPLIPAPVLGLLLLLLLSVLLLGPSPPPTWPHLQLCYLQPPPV
# B2: U4/U6 small nuclear ribonucleoprotein Prp31 (Homo sapiens), Q8WWY3 (parent)
# chain: MSLADELLADLEEAAEEEEGGSYGEEEEEPAIEDVQEETQLDLSGDSVKTIAKLWDSKMFAEIMMKIEEYISKQAKASEVMGPVEAAPEYRVIVDANNLTVEIENELNIIHKFIRDKYSKRFPELESLVPNALDYIRTVKELGNSLDKCKNNENLQQILTNATIMVVSVTASTTQGQQLSEEELERLEEACDMALELNASKHRIYEYVESRMSFIAPNLSIIIGASTAAKIMGVAGGLTNLSKMPACNIMLLGAQRKTLSGFSSTSVLPHTGYIYHSDIVQSLPPDLRRKAARLVAAKCTLAARVDSFHESTEGKVGYELKDEIERKFDKWQEPPPVKQVKPLPAPLDGQRKKRGGRRYRKMKERLGLTEIRKQANRMSFGEIEEDAYQEDLGFSLGHLGKSGSGRVRQTQVNEATKARISKTLQRTLQKQSVVYGGKSTIRDRSSGTASSVAFTPLQGLEIVNPQAAEKKVAEANQKYFSSMAEFLKVKGEKSGLMST
# partner: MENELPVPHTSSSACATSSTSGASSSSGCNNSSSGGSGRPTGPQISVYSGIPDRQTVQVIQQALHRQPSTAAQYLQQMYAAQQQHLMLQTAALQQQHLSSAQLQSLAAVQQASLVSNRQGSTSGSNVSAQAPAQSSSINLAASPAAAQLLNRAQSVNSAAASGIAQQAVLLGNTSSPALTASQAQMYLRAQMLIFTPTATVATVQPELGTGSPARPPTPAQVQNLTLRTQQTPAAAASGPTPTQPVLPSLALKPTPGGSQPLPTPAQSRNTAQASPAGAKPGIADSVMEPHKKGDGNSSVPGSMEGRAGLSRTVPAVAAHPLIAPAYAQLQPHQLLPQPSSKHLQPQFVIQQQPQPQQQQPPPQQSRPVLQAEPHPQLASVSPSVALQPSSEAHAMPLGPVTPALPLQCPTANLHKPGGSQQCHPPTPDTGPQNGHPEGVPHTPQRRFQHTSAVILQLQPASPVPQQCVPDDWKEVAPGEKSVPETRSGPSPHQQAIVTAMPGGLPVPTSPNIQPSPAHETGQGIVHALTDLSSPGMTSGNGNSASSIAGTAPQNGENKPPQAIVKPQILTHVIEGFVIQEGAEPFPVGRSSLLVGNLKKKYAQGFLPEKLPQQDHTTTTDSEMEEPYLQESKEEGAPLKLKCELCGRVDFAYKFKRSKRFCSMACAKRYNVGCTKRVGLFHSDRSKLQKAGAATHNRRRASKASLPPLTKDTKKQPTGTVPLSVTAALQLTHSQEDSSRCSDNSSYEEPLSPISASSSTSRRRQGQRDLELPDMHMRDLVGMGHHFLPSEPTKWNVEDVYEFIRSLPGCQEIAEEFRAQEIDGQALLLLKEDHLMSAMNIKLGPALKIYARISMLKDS
# B3: Beta-crystallin A4 (Homo sapiens), P53673 (parent)
# chain: MTLQCTKSAGPWKMVVWDEDGFQGRRHEFTAECPSVLELGFETVRSLKVLSGAWVGFEHAGFQGQQYILERGEYPSWDAWGGNTAYPAERLTSFRPAACANHRDSRLTIFEQENFLGKKGELSDDYPSLQAMGWEGNEVGSFHVHSGAWVCSQFPGYRGFQYVLECDHHSGDYKHFREWGSHAPTFQVQSIRRIQQ
# partner: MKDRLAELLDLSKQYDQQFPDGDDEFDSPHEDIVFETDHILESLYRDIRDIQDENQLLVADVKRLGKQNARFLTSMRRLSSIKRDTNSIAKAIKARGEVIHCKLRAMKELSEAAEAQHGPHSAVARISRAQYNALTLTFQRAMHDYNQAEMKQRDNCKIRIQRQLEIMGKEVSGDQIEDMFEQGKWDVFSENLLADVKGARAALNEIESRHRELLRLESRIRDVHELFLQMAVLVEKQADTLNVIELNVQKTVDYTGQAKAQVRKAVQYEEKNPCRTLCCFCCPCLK
# Variants of: B1
# Conditions: with kash5_human KASH5, Q8N6L0
row,effect of a mutation on the interaction,Variant
1,with no effect,MVKLLPAQEAAKIYHTNYVRNSRAVGVMWGTLTICFSVLVMALFIQPYWIGDSVNTPQAGYFGLFSYCVGNVLSSELICKGGPLDFSSIPSRAFKTAMFFVALGMFLIIGSIICFSLFFICNTATVCKICAWMQLAAATGLMIGCLVYPDGWDSSEVRRMCGEQTGKYTLGHCTIRWAFMLAILSIGDALILSFLAFVLGYRQDKLLPDDYKADGTEEV [Y127C]
2,with no effect,MVKLLPAQEAAKIYHTNYVRNSRAVGVMWGTLTICFSVLVMALFIQPYWIGDSVNTPQAGYFGLFSYCVGNVLSSELICKGGPLDFSSIPSRAFKTAMFFVALGMFLIIGSIICFSLFFICNTATVYKICAWMQLAAATGLMIGCLVYPDGWDSSEVRRMCGEQMGKYTLGHCTIRWAFMLAILSIGDALILSFLAFVLGYRQDKLLPDDYKADGTEEV [T165M]

# Variants of: B2
# Conditions: with PHC2, Q8IXK0-5
row,effect of a mutation on the interaction,Variant
1,with no effect,MSLADELLADLEEAAEEEEGGSYGEEEEEPAIEDVQEETQLDLSGDSVKTIAKLWDSKMFAEIMMKIEEYISKQAKASEVMGPVEAAPEYRVIVDANNLTVEIENEVNIIHKFIRDKYSKRFPELESLVPNALDYIRTVKELGNSLDKCKNNENLQQILTNATIMVVSVTASTTQGQQLSEEELERLEEACDMALELNASKHRIYEYVESRMSFIAPNLSIIIGASTAAKIMGVAGGLTNLSKMPACNIMLLGAQRKTLSGFSSTSVLPHTGYIYHSDIVQSLPPDLRRKAARLVAAKCTLAARVDSFHESTEGKVGYELKDEIERKFDKWQEPPPVKQVKPLPAPLDGQRKKRGGRRYRKMKERLGLTEIRKQANRMSFGEIEEDAYQEDLGFSLGHLGKSGSGRVRQTQVNEATKARISKTLQRTLQKQSVVYGGKSTIRDRSSGTASSVAFTPLQGLEIVNPQAAEKKVAEANQKYFSSMAEFLKVKGEKSGLMST [L107V]

# Variants of: B3
# Conditions: with stx11_human STX11, O75558
row,effect of a mutation on the interaction,Variant
1,disrupting interaction strength,MTLQCTKSAGPWKMVVWDEDGFQGRRHEFTAECPSMLELGFETVRSLKVLSGAWVGFEHAGFQGQQYILERGEYPSWDAWGGNTAYPAERLTSFRPAACANHRDSRLTIFEQENFLGKKGELSDDYPSLQAMGWEGNEVGSFHVHSGAWVCSQFPGYRGFQYVLECDHHSGDYKHFREWGSHAPTFQVQSIRRIQQ [V36M]
2,disrupting interaction strength,MTLQCTKSAGPWKMVVWDEDGFQGRRHEFTAECPSVLELGFETVRSLKVLSGAWVGFEHAGFQGQQYIPERGEYPSWDAWGGNTAYPAERLTSFRPAACANHRDSRLTIFEQENFLGKKGELSDDYPSLQAMGWEGNEVGSFHVHSGAWVCSQFPGYRGFQYVLECDHHSGDYKHFREWGSHAPTFQVQSIRRIQQ [L69P]
3,disrupting interaction strength,MTLQCTKSAGPWKMVVWDEDGFQGRRHEFTAECPSVLELGFETVRSLKVLSGAWVGFEHAGFQGQQYILERGEYPSWDAWGGNTAYPAERLTSSRPAACANHRDSRLTIFEQENFLGKKGELSDDYPSLQAMGWEGNEVGSFHVHSGAWVCSQFPGYRGFQYVLECDHHSGDYKHFREWGSHAPTFQVQSIRRIQQ [F94S]
